Results reported in article doi:10.1101/2025.04.13.648610, “Catalytic Mechanism and Differential Alarmone Regulation of a Conserved Stringent Nucleosidase” (bioRxiv, 2025).

Assays:
[1] = molecular target: the molecule itself; assay: crystal structure; wt PpnN co-crystallised with pppGpp (3:4 PpnN; pppGpp on three of four subunits; R5P and guanine in the active sites); 6-8 mg/ml PpnN, 1-2 mM ligand
[2] = molecular target: the molecule itself; assay: SEC; Superdex 200 10/300 GL in 50 mM Tris-HCl pH 7.5, 200 mM NaCl, 5% glycerol, 5 mM BME; elution profiles of variants compared with wt PpnN
[3] = molecular target: the molecule itself; assay: crystal structure; PpnN E264A co-crystallised with pppGpp and 2 mM GMP (E264A 4:4 PpnN; four pppGpp and four R5P bound); 6-8 mg/ml PpnN; 3.5 Å

Protein	stoichiometry N [2]	further results
PpnN (wild type), nucleosidase of Escherichia coli (enzyme, UniProt P0ADR8 1-454, looked up, PpnN (previously YgdH), nucleosidase, Escherichia coli; PAG1 domain 1-150, catalytic domain 151-329, PAG2 domain 330-454; also called wt PpnN; PpnNwt; source: E. coli BL21 (DE3) ΔppnN (ppnN::kan), purified (Ni-NTA, Superdex 200 for biochemistry; HisTrap, SourceQ, Superdex 200 Increase for crystallisation); not shown: His6, N-terminal, kept) MITHISPLGSMDMLSQLEVDMLKRTASSDLYQLFRNCSLAVLNSGSLTDNSKELLSRFENFDINVLRRERGVKLELINPPEEAFVDGRIIRALQANLFAVLRDILFVYGQIHNTVRFPNLNLDNSVHITNLVFSILRNARALHVGEAPNMVVCWGGHSINENEYLYARRVGNQLGLRELNICTGCGPGAMEAPMKGAAVGHAQQRYKDSRFIGMTEPSIIAAEPPNPLVNELIIMPDIEKRLEAFVRIAHGIIIFPGGVGTAEELLYLLGILMNPANKDQVLPLILTGPKESADYFRVLDEFVVHTLGENARRHYRIIIDDAAEVARQMKKSMPLVKENRRDTGDAYSFNWSMRIAPDLQMPFEPSHENMANLKLYPDQPVEVLAADLRRAFSGIVAGNVKEVGIRAIEEFGPYKINGDKEIMRRMDDLLQGFVAQHRMKLPGSAYIPCYEICT	–	stoichiometry N [1]: 4
PpnN M190A (enzyme, Escherichia coli, UniProt P0ADR8 1-454, looked up, PpnN (previously YgdH), nucleosidase, Escherichia coli, with M190A; Made by quick-change mutagenesis on pCA24N-ppnN (wt); also called M190A variant; source: E. coli BL21 (DE3) ΔppnN, purified (Ni-NTA, Superdex 200)) MITHISPLGSMDMLSQLEVDMLKRTASSDLYQLFRNCSLAVLNSGSLTDNSKELLSRFENFDINVLRRERGVKLELINPPEEAFVDGRIIRALQANLFAVLRDILFVYGQIHNTVRFPNLNLDNSVHITNLVFSILRNARALHVGEAPNMVVCWGGHSINENEYLYARRVGNQLGLRELNICTGCGPGAAEAPMKGAAVGHAQQRYKDSRFIGMTEPSIIAAEPPNPLVNELIIMPDIEKRLEAFVRIAHGIIIFPGGVGTAEELLYLLGILMNPANKDQVLPLILTGPKESADYFRVLDEFVVHTLGENARRHYRIIIDDAAEVARQMKKSMPLVKENRRDTGDAYSFNWSMRIAPDLQMPFEPSHENMANLKLYPDQPVEVLAADLRRAFSGIVAGNVKEVGIRAIEEFGPYKINGDKEIMRRMDDLLQGFVAQHRMKLPGSAYIPCYEICT	4	–
PpnN E223A (enzyme, Escherichia coli, UniProt P0ADR8 1-454, looked up, PpnN (previously YgdH), nucleosidase, Escherichia coli, with E223A; Made by quick-change mutagenesis on pCA24N-ppnN (wt); also called E223A variant; source: E. coli BL21 (DE3) ΔppnN, purified (Ni-NTA, Superdex 200)) MITHISPLGSMDMLSQLEVDMLKRTASSDLYQLFRNCSLAVLNSGSLTDNSKELLSRFENFDINVLRRERGVKLELINPPEEAFVDGRIIRALQANLFAVLRDILFVYGQIHNTVRFPNLNLDNSVHITNLVFSILRNARALHVGEAPNMVVCWGGHSINENEYLYARRVGNQLGLRELNICTGCGPGAMEAPMKGAAVGHAQQRYKDSRFIGMTEPSIIAAAPPNPLVNELIIMPDIEKRLEAFVRIAHGIIIFPGGVGTAEELLYLLGILMNPANKDQVLPLILTGPKESADYFRVLDEFVVHTLGENARRHYRIIIDDAAEVARQMKKSMPLVKENRRDTGDAYSFNWSMRIAPDLQMPFEPSHENMANLKLYPDQPVEVLAADLRRAFSGIVAGNVKEVGIRAIEEFGPYKINGDKEIMRRMDDLLQGFVAQHRMKLPGSAYIPCYEICT	4	–
PpnN R241A (enzyme, Escherichia coli, UniProt P0ADR8 1-454, looked up, PpnN (previously YgdH), nucleosidase, Escherichia coli, with R241A; Made by quick-change mutagenesis on pCA24N-ppnN (wt); also called R241A variant; source: E. coli BL21 (DE3) ΔppnN, purified (Ni-NTA, Superdex 200)) MITHISPLGSMDMLSQLEVDMLKRTASSDLYQLFRNCSLAVLNSGSLTDNSKELLSRFENFDINVLRRERGVKLELINPPEEAFVDGRIIRALQANLFAVLRDILFVYGQIHNTVRFPNLNLDNSVHITNLVFSILRNARALHVGEAPNMVVCWGGHSINENEYLYARRVGNQLGLRELNICTGCGPGAMEAPMKGAAVGHAQQRYKDSRFIGMTEPSIIAAEPPNPLVNELIIMPDIEKALEAFVRIAHGIIIFPGGVGTAEELLYLLGILMNPANKDQVLPLILTGPKESADYFRVLDEFVVHTLGENARRHYRIIIDDAAEVARQMKKSMPLVKENRRDTGDAYSFNWSMRIAPDLQMPFEPSHENMANLKLYPDQPVEVLAADLRRAFSGIVAGNVKEVGIRAIEEFGPYKINGDKEIMRRMDDLLQGFVAQHRMKLPGSAYIPCYEICT	4	–
PpnN H157A (enzyme, Escherichia coli, UniProt P0ADR8 1-454, looked up, PpnN (previously YgdH), nucleosidase, Escherichia coli, with H157A; Made by quick-change mutagenesis on pCA24N-ppnN (wt); also called H157A variant; source: E. coli BL21 (DE3) ΔppnN, purified (Ni-NTA, Superdex 200)) MITHISPLGSMDMLSQLEVDMLKRTASSDLYQLFRNCSLAVLNSGSLTDNSKELLSRFENFDINVLRRERGVKLELINPPEEAFVDGRIIRALQANLFAVLRDILFVYGQIHNTVRFPNLNLDNSVHITNLVFSILRNARALHVGEAPNMVVCWGGASINENEYLYARRVGNQLGLRELNICTGCGPGAMEAPMKGAAVGHAQQRYKDSRFIGMTEPSIIAAEPPNPLVNELIIMPDIEKRLEAFVRIAHGIIIFPGGVGTAEELLYLLGILMNPANKDQVLPLILTGPKESADYFRVLDEFVVHTLGENARRHYRIIIDDAAEVARQMKKSMPLVKENRRDTGDAYSFNWSMRIAPDLQMPFEPSHENMANLKLYPDQPVEVLAADLRRAFSGIVAGNVKEVGIRAIEEFGPYKINGDKEIMRRMDDLLQGFVAQHRMKLPGSAYIPCYEICT	4	–
PpnN D49A (enzyme, Escherichia coli, UniProt P0ADR8 1-454, looked up, PpnN (previously YgdH), nucleosidase, Escherichia coli, with D49A; Made by quick-change mutagenesis on pCA24N-ppnN (wt); source: E. coli BL21 (DE3) ΔppnN, purified (Ni-NTA, Superdex 200)) MITHISPLGSMDMLSQLEVDMLKRTASSDLYQLFRNCSLAVLNSGSLTANSKELLSRFENFDINVLRRERGVKLELINPPEEAFVDGRIIRALQANLFAVLRDILFVYGQIHNTVRFPNLNLDNSVHITNLVFSILRNARALHVGEAPNMVVCWGGHSINENEYLYARRVGNQLGLRELNICTGCGPGAMEAPMKGAAVGHAQQRYKDSRFIGMTEPSIIAAEPPNPLVNELIIMPDIEKRLEAFVRIAHGIIIFPGGVGTAEELLYLLGILMNPANKDQVLPLILTGPKESADYFRVLDEFVVHTLGENARRHYRIIIDDAAEVARQMKKSMPLVKENRRDTGDAYSFNWSMRIAPDLQMPFEPSHENMANLKLYPDQPVEVLAADLRRAFSGIVAGNVKEVGIRAIEEFGPYKINGDKEIMRRMDDLLQGFVAQHRMKLPGSAYIPCYEICT	4	–
PpnN T261A (enzyme, Escherichia coli, UniProt P0ADR8 1-454, looked up, PpnN (previously YgdH), nucleosidase, Escherichia coli, with T261A; Made by quick-change mutagenesis on pCA24N-ppnN (wt); also called T261A variant; source: E. coli BL21 (DE3) ΔppnN, purified (Ni-NTA, Superdex 200)) MITHISPLGSMDMLSQLEVDMLKRTASSDLYQLFRNCSLAVLNSGSLTDNSKELLSRFENFDINVLRRERGVKLELINPPEEAFVDGRIIRALQANLFAVLRDILFVYGQIHNTVRFPNLNLDNSVHITNLVFSILRNARALHVGEAPNMVVCWGGHSINENEYLYARRVGNQLGLRELNICTGCGPGAMEAPMKGAAVGHAQQRYKDSRFIGMTEPSIIAAEPPNPLVNELIIMPDIEKRLEAFVRIAHGIIIFPGGVGAAEELLYLLGILMNPANKDQVLPLILTGPKESADYFRVLDEFVVHTLGENARRHYRIIIDDAAEVARQMKKSMPLVKENRRDTGDAYSFNWSMRIAPDLQMPFEPSHENMANLKLYPDQPVEVLAADLRRAFSGIVAGNVKEVGIRAIEEFGPYKINGDKEIMRRMDDLLQGFVAQHRMKLPGSAYIPCYEICT	4	–
PpnN K195A (enzyme, Escherichia coli, UniProt P0ADR8 1-454, looked up, PpnN (previously YgdH), nucleosidase, Escherichia coli, with K195A; Made by quick-change mutagenesis on pCA24N-ppnN (wt); source: E. coli BL21 (DE3) ΔppnN, purified (Ni-NTA, Superdex 200)) MITHISPLGSMDMLSQLEVDMLKRTASSDLYQLFRNCSLAVLNSGSLTDNSKELLSRFENFDINVLRRERGVKLELINPPEEAFVDGRIIRALQANLFAVLRDILFVYGQIHNTVRFPNLNLDNSVHITNLVFSILRNARALHVGEAPNMVVCWGGHSINENEYLYARRVGNQLGLRELNICTGCGPGAMEAPMAGAAVGHAQQRYKDSRFIGMTEPSIIAAEPPNPLVNELIIMPDIEKRLEAFVRIAHGIIIFPGGVGTAEELLYLLGILMNPANKDQVLPLILTGPKESADYFRVLDEFVVHTLGENARRHYRIIIDDAAEVARQMKKSMPLVKENRRDTGDAYSFNWSMRIAPDLQMPFEPSHENMANLKLYPDQPVEVLAADLRRAFSGIVAGNVKEVGIRAIEEFGPYKINGDKEIMRRMDDLLQGFVAQHRMKLPGSAYIPCYEICT	4	–
PpnN E263A (enzyme, Escherichia coli, UniProt P0ADR8 1-454, looked up, PpnN (previously YgdH), nucleosidase, Escherichia coli, with E263A; Made by quick-change mutagenesis on pCA24N-ppnN (wt); also called E263A variant; source: E. coli BL21 (DE3) ΔppnN, purified (Ni-NTA, Superdex 200)) MITHISPLGSMDMLSQLEVDMLKRTASSDLYQLFRNCSLAVLNSGSLTDNSKELLSRFENFDINVLRRERGVKLELINPPEEAFVDGRIIRALQANLFAVLRDILFVYGQIHNTVRFPNLNLDNSVHITNLVFSILRNARALHVGEAPNMVVCWGGHSINENEYLYARRVGNQLGLRELNICTGCGPGAMEAPMKGAAVGHAQQRYKDSRFIGMTEPSIIAAEPPNPLVNELIIMPDIEKRLEAFVRIAHGIIIFPGGVGTAAELLYLLGILMNPANKDQVLPLILTGPKESADYFRVLDEFVVHTLGENARRHYRIIIDDAAEVARQMKKSMPLVKENRRDTGDAYSFNWSMRIAPDLQMPFEPSHENMANLKLYPDQPVEVLAADLRRAFSGIVAGNVKEVGIRAIEEFGPYKINGDKEIMRRMDDLLQGFVAQHRMKLPGSAYIPCYEICT	4	–
PpnN E264A (enzyme, Escherichia coli, UniProt P0ADR8 1-454, looked up, PpnN (previously YgdH), nucleosidase, Escherichia coli, with E264A; Made by quick-change mutagenesis on pCA24N-ppnN (wt); also called E264A 4:4 PpnN; E264A variant; source: E. coli BL21 (DE3) ΔppnN (ppnN::kan), purified (Ni-NTA, Superdex 200 for biochemistry; HisTrap, SourceQ, Superdex 200 Increase for crystallisation)) MITHISPLGSMDMLSQLEVDMLKRTASSDLYQLFRNCSLAVLNSGSLTDNSKELLSRFENFDINVLRRERGVKLELINPPEEAFVDGRIIRALQANLFAVLRDILFVYGQIHNTVRFPNLNLDNSVHITNLVFSILRNARALHVGEAPNMVVCWGGHSINENEYLYARRVGNQLGLRELNICTGCGPGAMEAPMKGAAVGHAQQRYKDSRFIGMTEPSIIAAEPPNPLVNELIIMPDIEKRLEAFVRIAHGIIIFPGGVGTAEALLYLLGILMNPANKDQVLPLILTGPKESADYFRVLDEFVVHTLGENARRHYRIIIDDAAEVARQMKKSMPLVKENRRDTGDAYSFNWSMRIAPDLQMPFEPSHENMANLKLYPDQPVEVLAADLRRAFSGIVAGNVKEVGIRAIEEFGPYKINGDKEIMRRMDDLLQGFVAQHRMKLPGSAYIPCYEICT	–	stoichiometry N [3]: 4
